Results: the RNAGym collection of RNA variant scans (doi:10.1073/pnas.2313332121)

B1: TPR t1 (parent)
chain: GACCAAUCUGCCCUCAGAGCUCGAGAACAUCUUCGGAUGCAGAGGAGGCAGGCUUCGGUGGCGCGAUAGCGCCAACGUCCUCAACCUCCAAUGCAUCCCACCACAUGAUGAUGCCUGAAGAGCCUUGGUUUUUUG

Variants of: B1
Assay: polymerase ribozyme fitness, log enrichment relative to wild type (log ratio); higher = more active; in vitro selection for triplet polymerase activity
Procedure, shortened: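 In triplicate, a single round of in vitro selection was run on each mutant library, PCR-built and transcribed, covering one subunit of a heterodimeric triplet polymerase ribozyme. Frozen incubation at −7 °C followed annealing with a biotinylated primer, partner subunit and triplets, and extended constructs were then gel-excised, streptavidin-captured and taken through RT-PCR. Fitness is the logarithm of genotype enrichment over wild-type enrichment, from inverse-variance-weighted replicate averages of Illumina-sequenced inputs and outputs. […] only genotypes with ≥10 input reads and ≥1 read per output were kept.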

Variant	polymerase ribozyme fitness (log ratio)
GACCAAUCUGCCCUCAGAGCUCGAGAACAUCUUCGGAUGCAGAGGUGGCAGGCUUGGGUGUCGCGAUAGCGCCAACGUCCUCAACCUCCAAUGCAUCCCACCACUUGAUGAUGCCUGAAGAGUCUUGGUUUUUUG	-5.93
GACCAAUCUGCCCUCAGAGCUCGAGAACAUCUUCGGAUGCAGAGGGAGCAGUCUUCGGUGGCGCGAUAGCGCCAACGUCCUCAACCUCCAAUGCAUCCCACCACAUGAUGAUGCCUGAAGAGCCUUGGUUUUUUG	-2.7
GACCAAUCUGCCCUCAGAGCUCGAGAACAUCUUCGGAUGCAGAGGGGGCAGGCUUCGGUGGCGCGAUAGGGCCAACGUCCUCAACCUCCAAUGCAUCCCACCACAUGAUGAUGCCUGAAGAGCCUUGGUUUUUUG	-4.8
GACCAAUCUGCCCUCAGAGCUCGAGAACAUCUUCGGAUGCAGAGGGGGCAGGCUUCGGUGGCGCGAUAGAGCCAACGUCCUCAACCUCCAAUGCAUCCCACCACAUGAUGAUGCCUGAAGAGCCUUGGUUUUUUG	-1.26
GACCAAUCUGCCCUCAGAGCUCGAGAACAUCUUCGGAUGCAGAGGUGGCAGGCUUAGGUGGCGCGAUAGCGCCAACGUCCUCAACCUCCAAUGCAUCCCACCACAUGAUGAUGCUUGAAGAGCCUUGGUUUUUUG	-2.68
GACCAAUCUGCCCUCAGAGCUCGAGAACAUCUUCGGAUGCAGAGGCGGCAGGCUUCGGUGGCGCGAUAGCCCCAACGUCCUCAACCUCCAAUGCAUCCCACCACAUGAUGAUGCCUGAAGAGCCUUGGUUUUUUG	-1.14
GACCAAUCUGCCCUCAGAGCUCGAGAACAUCUUCGGAUGCAGAGGGGGCAGGCUUCGGUGGCGCGAUAGCGCCAACGUCCUCAACCUCCAAUGCAUUCCACCACAUGAUGAUGCCUGAAGAGCCUUGGUUUUUUG	-1.05
GACCAAUCUGCCCUCAGAGCUCGAGAACAUCUUCGGAUGCAGAGGGGGCAGGCUUCGGUGGCGCGAUAGCGCCAACGUCCUCAACCUCCAAUGCAUCCCACCACAUGAUGAUGCCUGAAGAGUCUUGGUUUUUUG	0.893
GACCAAUCUGCCCUCAGAGCUCGAGAACAUCUUCGGAUGCAGAGGCGGCAGGCUUCGGUGGCGCGAUAGCGCCAACGUCCUCAACCUCCAAUGCAUCCCACCACAUGACGAUGCCUGAAGAGCCUUGGUUUUUUG	-6.47
GACCAAUCUGCCCUCAGAGCUCGAGAACAUCUUCGGAUGCAGAGGCGGCAGGCUUCGAUGGUGCGAUAGCGCCAACGUCCUCAACCUCCAAUGCAUCCCACCACAUGAUGAUGCCUGAAGAGCCUUGGUUUUUUG	-1.93
GACCAAUCUGCCCUCAGAGCUCGAGAACAUCUUCGGAUGCAGAGGGGGCAGGCUUAGGUGGCGCGAUAGCGCCAACGUCCUCAACCUCCAAUGCAUCCCCCCACAUGAUGAUGCCUGAAGAGCCUUGGUUUUUUG	-1.41
GACCAAUCUGCCCUCAGAGCUCGAGAACAUCUUCGGAUGCAGAGGGGGCAGGCUUCGGUGGCGCGAUAGCGCGAACGUCCUUAACCUCCAAUACAUCCCACCAAAUGAUGAUGCCUGAAGAGCCUUGGUUUUUUG	-4.85
GACCAAUCUGCCCUCAGAGCUCGAGAACAUCUUCGGAUGCAGAGGCGGCAGGCUUCGGUGGCGCGAUAGCGCCAACGUCCUCAACCUCCAAUGCAUCCCACCACAUGAUGAUGCCUGAAAAGCCUUGGUUUUUUG	-0.00915
GACCAAUCUGCCCUCAGAGCUCGAGAACAUCUUCGGAUGCAGAGGGGGCAGGCUUCGGUGGCGCGAUAGCGCCAACGUCCUCAACCUCCAAUGCAUCCCACCACAUGAUGAUACCUGAAGAGCCUUGGUUUUUUG	-1.46
GACCAAUCUGCCCUCAGAGCUCGAGAACAUCUUCGGAUGCAGAGGUGGCAGGCUUCGGUGGCGCGAUAGCGCCAACGUCCUCAACCUCCAAUGCAUCCCACCACAUGAUGAUGCCUGAAGCGCCUUGGUUUUUUG	1.4
GACCAAUCUGCCCUCAGAGCUCGAGAACAUCUUCGGAUGCAGAGGGGGCAGGCUUCGGUGGCGCGAUAGCGCCAACGUCCUCAACCUCCAAUGCAUUCCACCACAUGAUGAUGCCUGAAGAGCCUUGGUGUUUUG	-2.03
GACCAAUCUGCCCUCAGAGCUCGAGAACAUCUUCGGAUGCAGAGGUGGCAGGCUUCGGUGGGGCGAUAGCGCCAACGUCCUCAACCUCCAAUGCAUCCCACCACAUGAUGAUGCCUGAAGAGCCUUGGUUUUUUG	-3.18
GACCAAUCUGCCCUCAGAGCUCGAGAACAUCUUCGGAUGCAGAGGUGGUAGGCUUCGCUAGCGCGAUAGCGCCAACGUCCUCAACCUCCAAUGCCUCCCACCACAUGAUGAGGCCUGAAGAGCCUUGGUUUAUUG	-3.98
GACCAAUCUGCCCUCAGAGCUCGAGAACAUCUUCGGAUGCAGAGGUGGCAGGCUUGGGUGGCGCGAUAGCGCCAACGUCCUCAACCUCCAAUGCAUCCCACCACAUGAUGAUGCCUGAACAGCCUUGGUUUUUUG	-0.234
GACCAAUCUGCCCUCAGAGCUCGAGAACAUCUUCGGAUGCAGAGGGGGCAGGCUUCGGUGGCGCGAUAGCGCCAACGUCCUCAACCUCCAAUGCAUCCCAACACAUGAUGAUGCCUGAAGAGCCUUGGUUUUUUG	-0.288
GACCAAUCUGCCCUCAGAGCUCGAGAACAUCUUCGGAUGCAGAGGUGGCAGGCUUCGGUGGCGCGAUAGCGCCAACGUCCUCAACCUCCAAUGCAUCCCACCACAUGAUGGUGCCUGAAGAGCCUUGGUUUUUUG	-1.48

Variant	polymerase ribozyme fitness (log ratio)
GACCAAUCUGCCCUCAGAGCUCGAGAACAUCUUCGGAUGCAGAGGGGGCAGGUUUCGGUGGCGCGAUAGCGCCAACGUCCUCAACCUCCAAUGCAUCCCACCACAUGAUGAUACCUGAAGAGCCUUGGUUUUUUG	-2.14
GACCAAUCUGCCCUCAGAGCUCGAGAACAUCUUCGGAUGCAGAGGGGGCAGGCGUCGGUGGCGCGAUAGCGCCAACGUCCUCAACCUCCAAUGCAUCCCACCACAUGAUGAUGCCUGAAGAGCCUUGGUUUUUUG	0.0807
GACCAAUCUGCCCUCAGAGCUCGAGAACAUCUUCGGAUGCAGAGGGGGCAGGCUUCGGUGGCGCGAUAGCGCCAACGUCCUCAACCUCCAAUGCAUCCCACCACAUGAUGAAGCCUGAAGAGCCUUGGUUUUUUG	1.3
GACCAAUCUGCCCUCAGAGCUCGAGAACAUCUUCGGAUGCAGAGGUGGCAGGCUUCGGUGGCGCGCUAGCGCCAACGUCCUCAACCUCCAAUGCAUCCCACCACAUGAUGAUGCCUGAAGAGCCUUGGUUUUUUG	-2.07
GACCAAUCUGCCCUCAGAGCUCGAGAACAUCUUCGGAUGCAGAGGGGGCAGGCUUCGGUGGCGCGAUAGCGCCAACGUCCUCAACCUCCAAUGCAUCUCACCACAUGAUGAUGCCUCAAGAGCCUUGGUUUUUUG	-5.69
GACCAAUCUGCCCUCAGAGCUCGAGAACAUCUUCGGAUGCAGAGGGGGCAGGAUUUGGUGGCGCGAUAGCGCCAACGUCCUCAACCUCCAAUGCAUCCCACCACAUGAUGAUGCCUGAAGAGCCUUGGUUUUUUG	-0.0153
GACCAAUCUGCCCUCAGAGCUCGAGAACAUCUUCGGAUGCAGAGGGGGAAGGCUUCGGUGGCGCGAUAGCGCCAACGUCCUCAACCUCCAAUGCAUCCCACCACAUGAUGAUGCCUGAAGAGCCUUGGUUUUUUG	0.0417
GACCAAUCUGCCCUCAGAGCUCGAGAACAUCUUCGGAUGCAGAGGGGGUAGGCUUCGGUGGCGCGAUAGCGCCAACGUCCUCAACCUCCAAUGCAUCCCACCACAUGAUGAUGCCUGAAGAGCCUUGGUUUUUUG	-0.575
GACCAAUCUGCCCUCAGAGCUCGAGAACAUCUUCGGAUGCAGAGGCGGCAGGCUUCGGUGGCGCGAUAGCGCCAACGUCCUCAACCUCCAAUGCAGCCCACCAUAUGAUGAUGCCUGAAGAGCCUUGGUUCUUUG	-1.75
GACCAAUCUGCCCUCAGAGCUCGAGAACAUCUUCGGAUGCAGAGGGGGCAGGCUUCGGUGGCGUGAUAGCGCCAACGUCCUCAACCUCCAAUGCAUCCCACCACAUGAUUAUGCCUGAAGAGGCUUGGUUUUUUG	-1.18
GACCAAUCUGCCCUCAGAGCUCGAGAACAUCUUCGGAUGCAGAGGCGGCAGGCUUCGCAGGCGCGAUAGCGCCAACGUCCUCAACCUGCAAUGCAUCCCACCACAUGAUGAUGCCUGAAGAGCCUUGGUUUUUUG	-2.01
GACCAAUCUGCCCUCAGAGCUCGAGAACAUCUUCGGAUGCAGAGGGGGCAGGCUUCGGUGGCGCGAUAGCGCCAACGUCCUCAACCUCCAAUGCGUCCCACCACAUGAUGAUGCCUGAAGAGCCUUGGUUUUUUG	-0.108
GACCAAUCUGCCCUCAGAGCUCGAGAACAUCUUCGGAUGCAGAGGGGGCAGGCUGCGGUGGCGCGAUAGCGCCAACGUCCUCAACCCCCAAUGCAUCCCACCACAUGAUGAUGCCUGAAGAGCCUUGGUUUUUUG	-0.104
GACCAAUCUGCCCUCAGAGCUCGAGAACAUCUUCGGAUGCAGAGGUGGCAGGCUUCGGUGGCGCGAUAGCGCCAACGUCCUCGACCUCCAAUGCAUCCCACCACAUGAUAAUGCCUGAAGAGCCUUGGUUUUUUG	-3.02
GACCAAUCUGCCCUCAGAGCUCGAGAACAUCUUCGGAUGCAGAGGGGGCAGGCUUAGGUGGCGCGAUAGCGCCAACGUCCUCAACCUCCAUUGCAUCCCACCACAUGAUGAUGCCUGAAGAGCCUUGGUUUUUUG	-2.49
GACCAAUCUGCCCUCAGAGCUCGAGAACAUCUUCGGAUGCAGAGGCGGCAGGCUUCGGUGGCGCGAUAGCGCCAACGUCCUCAACCACCAAUCCAUCCCACCACAUGAUGAUGCACGACGAGCCUUGGUUUUUUG	-3.74
GACCAAUCUGCCCUCAGAGCUCGAGAACAUCUUCGGAUGCAGAGGCGGCAGGCUUCGGUGGCGCGAUAGCGCCAACGUCCUCAACCUCCAAUUCAUCCCACCACAAGAUGAUGCCUGAAGAGCCUUGGUUUUUUG	-1.93
GACCAAUCUGCCCUCAGAGCUCGAGAACAUCUUCGGAUGCAGAGGGUGCAGGCUUCGGUGGCGCGAUAGCGCCAACGUCCUCAACCUCCAAUGCAUCCCACCACAUGAUGAUGCCUGAGGAGCCUUGGUUUUUUG	-0.516
GACCAAUCUGCCCUCAGAGCUCGAGAACAUCUUCGGAUGCAGAGGGAGCAGGCUUCGGAGGCGCGAUAGCGCCAACGUCCUCAACCUCCAAUGCAUCCCACCACAUGAUGAUGCCUGAAGAGCCUUGGUUUUUUG	-0.512
GACCAAUCUGCCCUCAGAGCUCGAGAACAUCUUCGGAUGCAGAGGUGGGAGGCUUUGGUGGCGCGAUAGCGCCAAUGUCCUCAACCACCAAUGCAUCCCACCACAUGAUGAUGCCUGAAGAGCCUUGGUUUUUUG	-1.97
GACCAAUCUGCCCUCAGAGCUCGAGAACAUCUUCGGAUGCAGAGGCGGCAGGCUUCGGUGGCGCGAUAUCGCCAACGUCCUCAACCUCCAAUGCAUCCCACCACAUGAUGAUGCCUGAAGAGCCUUGGUUUUUUG	-0.0247
